Test results published in IntAct's records for PubMed 17141806.

B1: Disintegrin and metalloproteinase domain-containing protein 22 (Homo sapiens), Q9P0K1-1 (parent)
chain: MQAAVAVSVPFLLLCVLGTCPPARCGQAGDASLMELEKRKENRFVERQSIVPLRLIYRSGGEDESRHDALDTRVRGDLGGPQLTHVDQASFQVDAFGTSFILDVVLNHDLLSSEYIERHIEHGGKTVEVKGGEHCYYQGHIRGNPDSFVALSTCHGLHGMFYDGNHTYLIEPEENDTTQEDFHFHSVYKSRLFEFSLDDLPSEFQQVNITPSKFILKPRPKRSKRQLRRYPRNVEEETKYIELMIVNDHLMFKKHRLSVVHTNTYAKSVVNMADLIYKDQLKTRIVLVAMETWATDNKFAISENPLITLREFMKYRRDFIKEKSDAVHLFSGSQFESSRSGAAYIGGICSLLKGGGVNEFGKTDLMAVTLAQSLAHNIGIISDKRKLASGECKCEDTWSGCIMGDTGYYLPKKFTQCNIEEYHDFLNSGGGACLFNKPSKLLDPPECGNGFIETGEECDCGTPAECVLEGAECCKKCTLTQDSQCSDGLCCKKCKFQPMGTVCREAVNDCDIRETCSGNSSQCAPNIHKMDGYSCDGVQGICFGGRCKTRDRQCKYIWGQKVTASDKYCYEKLNIEGTEKGNCGKDKDTWIQCNKRDVLCGYLLCTNIGNIPRLGELDGEITSTLVVQQGRTLNCSGGHVKLEEDVDLGYVEDGTPCGPQMMCLEHRCLPVASFNFSTCLSSKEGTICSGNGVCSNELKCVCNRHWIGSDCNTYFPHNDDAKTGITLSGNGVAGTNIIIGIIAGTILVLALILGITAWGYKNYREQRQLPQGDYVKKPGDGDSFYSDIPPGVSTNSASSSKKRSNGLSHSWSERIPDTKHISDICENGRPRSNSWQGNLGGNKKKIRGKRFRPRSNSTETLSPAKSPSSSTGSIASSRKYPYPMPPLPDEDKKVNRQSARLWETSI

Variants of: B1
Conditions: with hck_human HCK

Row | effect of a mutation on the interaction | Variant
1 | decreasing interaction | Y882A
